According to patent US20250333467A1 (TECTONIC OPERATING, published 2025):
Residue numbers refer to the chain shown, from its start. Like-named read-outs stand apart in the source and are kept apart here.

T1: human RXFP1 (human, UniProt Q9HBX9 1-757)
T1 sequence (looked up): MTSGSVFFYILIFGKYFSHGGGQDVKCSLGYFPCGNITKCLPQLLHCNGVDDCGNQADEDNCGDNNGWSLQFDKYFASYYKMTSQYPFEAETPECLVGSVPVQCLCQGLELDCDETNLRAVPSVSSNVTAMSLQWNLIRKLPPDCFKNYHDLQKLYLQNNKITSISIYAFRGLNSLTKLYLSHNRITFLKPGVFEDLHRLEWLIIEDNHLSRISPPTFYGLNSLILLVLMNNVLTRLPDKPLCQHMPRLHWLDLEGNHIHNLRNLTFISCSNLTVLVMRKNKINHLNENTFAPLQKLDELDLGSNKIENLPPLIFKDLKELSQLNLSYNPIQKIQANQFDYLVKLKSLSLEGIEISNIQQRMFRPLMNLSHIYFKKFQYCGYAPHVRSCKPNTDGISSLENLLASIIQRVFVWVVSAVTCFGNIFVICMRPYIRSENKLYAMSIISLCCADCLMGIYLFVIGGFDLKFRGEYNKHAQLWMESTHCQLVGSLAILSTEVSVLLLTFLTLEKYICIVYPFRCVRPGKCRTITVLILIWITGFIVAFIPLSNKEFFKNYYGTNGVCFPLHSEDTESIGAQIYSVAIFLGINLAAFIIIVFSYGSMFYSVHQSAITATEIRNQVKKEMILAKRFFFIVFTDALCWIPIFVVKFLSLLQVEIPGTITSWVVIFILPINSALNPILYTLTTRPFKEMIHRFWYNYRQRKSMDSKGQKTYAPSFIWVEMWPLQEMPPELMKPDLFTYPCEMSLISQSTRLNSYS

T2: rat RXFP1 (rat, UniProt Q6R6I6 1-758)
T2 sequence (looked up): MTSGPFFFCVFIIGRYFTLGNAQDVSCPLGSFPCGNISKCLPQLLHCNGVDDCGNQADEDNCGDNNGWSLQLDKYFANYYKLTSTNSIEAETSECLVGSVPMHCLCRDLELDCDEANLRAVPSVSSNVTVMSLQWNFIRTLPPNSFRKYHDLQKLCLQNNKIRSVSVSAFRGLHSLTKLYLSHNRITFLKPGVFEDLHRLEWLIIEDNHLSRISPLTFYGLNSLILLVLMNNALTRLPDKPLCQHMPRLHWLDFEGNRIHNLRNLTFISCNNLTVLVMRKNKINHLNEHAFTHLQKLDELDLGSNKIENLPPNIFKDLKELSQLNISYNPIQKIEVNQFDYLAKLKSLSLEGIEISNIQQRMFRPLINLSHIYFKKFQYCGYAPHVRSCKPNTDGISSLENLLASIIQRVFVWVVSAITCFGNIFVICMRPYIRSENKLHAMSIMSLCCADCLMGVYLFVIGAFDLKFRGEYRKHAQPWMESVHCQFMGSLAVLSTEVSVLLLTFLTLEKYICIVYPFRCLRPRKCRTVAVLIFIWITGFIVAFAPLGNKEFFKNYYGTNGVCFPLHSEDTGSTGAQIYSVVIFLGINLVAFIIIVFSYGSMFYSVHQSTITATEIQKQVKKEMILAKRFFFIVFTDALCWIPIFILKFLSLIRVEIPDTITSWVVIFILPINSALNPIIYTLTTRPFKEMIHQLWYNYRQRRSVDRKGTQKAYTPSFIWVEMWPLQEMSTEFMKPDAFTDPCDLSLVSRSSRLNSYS

B1: SEQ ID NO: 317 (Fc fusion)
chain: DKTHTCPPCPAPEAAGGPSVFLFPPKPKDTLMISRTPEVTCVVVDVSHEDPEVKFNWYVDGVEVHNAKTKPREEQYNSTYRVVSVLTVLHQDWLNGKEYKCKVSNKALAAPIEKTISKAKGQPREPQVYTLPPSRDELTKNQVSLTCLVKGFYPSDIAVEWESNGQPENNYKTTPPVLDSDGSFFLYSKLTVDKSRWQQGNVFSCSVLHEALHSHYTQKSLSLSPGGGSDSWQEEVIKLCGRELVRAQIAICGKSTGGGEGGGEGGGEGRQLYSALANKCCHVGCTKRSLAQFC
B2: SEQ ID NO: 496 (Fc fusion)
chain: DKTHTCPPCPAPEAAGGPSVFLFPPKPKDTLMISRTPEVTCVVVDVSHEDPEVKFNWYVDGVEVHNAKTKPREEQYNSTYRVVSVLTVLHQDWLNGKEYKCKVSNKALAAPIEKTISKAKGQPREPQVYTLPPSRDELTKNQVSLTCLVKGFYPSDIAVEWESNGQPENNYKTTPPVLDSDGSFFLYSKLTVDKSRWQQGNVFSCSVLHEALHSHYTQKSLSLSPGKGGSDSWKEEVIKLCGRELVRAQIAICGKSTASDAAGANANAGARQLYSALANKCCHVGCTKRSLARFC
B3: SEQ ID NO: 118 (Fc fusion)
chain: B2 chain with K227E, K234Q, K255Q, N265Q, N267Q, R289Q, R293Q
B4: SEQ ID NO: 98 (Fc fusion)
chain: B2 chain with K227E, K234Q, K255Q, N265D, R293Q
B5: SEQ ID NO: 91 (Fc fusion)
chain: B2 chain with K227E, K234Q, N265D, R293Q
B6: SEQ ID NO: 126 (Fc fusion)
chain: B2 chain with K234Q, N265E, N267E, H283K, R293Q
B7: SEQ ID NO: 95 (Fc fusion)
chain: B2 chain with K227E, K234Q, N265Q, N267D, R293Q
B8: SEQ ID NO: 127 (Fc fusion)
chain: B2 chain with K227E, W233Y, K234Q, N265E, N267E, H283Y, R293Q
B9: SEQ ID NO: 86 (Fc fusion)
chain: B2 chain with K234Q, N265D, N267D, R293Q
B10: SEQ ID NO: 93 (Fc fusion)
chain: B2 chain with K227E, K234Q, N265D, N267D, R293Q
B11: SEQ ID NO: 104 (Fc fusion)
chain: B2 chain with K227E, K234Q, K255Q, N265Q, N267Q, R293Q
B12: SEQ ID NO: 111 (Fc fusion)
chain: B2 chain with K227E, K234Q, N265Q, N267Q, R289Q, R293Q
B13: SEQ ID NO: 128 (Fc fusion)
chain: B2 chain with K227E, W233Y, K234Q, N265E, N267E, H283K, R293Q
B14: SEQ ID NO: 313 (Fc fusion)
chain: DKTHTCPPCPAPEAAGGPSVFLFPPKPKDTLMISRTPEVTCVVVDVSHEDPEVKFNWYVDGVEVHNAKTKPREEQYNSTYRVVSVLTVLHQDWLNGKEYKCKVSNKALAAPIEKTISKAKGQPREPQVYTLPPSRDELTKNQVSLTCLVKGFYPSDIAVEWESNGQPENNYKTTPPVLDSDGSFFLYSKLTVDKSRWQQGNVFSCSVLHEALHSHYTQKSLSLSPGKGGSDSWQEEVIKLCGRELVRAQIAICGKSTGGGEGGGEGGGEGRQLYSALANKCCHVGCTKRSLAQFC
B15: SEQ ID NO: 131 (Fc fusion)
chain: B14 chain with K227E, W233Y, G260E, E261G, G262S, G267S, E269G, H283Y
B16: SEQ ID NO: 129 (Fc fusion)
chain: B14 chain with K227E, W233Y, G260E, E261G, G262S, G267E, E269G, H283Y
B17: SEQ ID NO: 132 (Fc fusion)
chain: B14 chain with K227E, W233Y, G260E, E261G, G262S, G267S, E269G, H283K
B18: SEQ ID NO: 130 (Fc fusion)
chain: B14 chain with K227E, W233Y, G260E, E261G, G262S, G267E, E269G, H283K

Tests used:
Experiment in all cases: cell-based or functional assay
human RXFP1 [1] = molecular target: T1, human RXFP1
human RXFP1 [2] = molecular target: T1, human RXFP1; remark: listed apart in the source
rat RXFP1 [3] = molecular target: T2, rat RXFP1
human RXFP1 [4] = molecular target: T1, human RXFP1; remark: listed apart in the source
rat RXFP1 [5] = molecular target: T2, rat RXFP1; remark: listed apart in the source
human RXFP1 [6] = molecular target: T1, human RXFP1; remark: listed apart in the source

Binder	Potency (cAMP, transient hRXFP1 in HEK293) (human RXFP1 [1]) [nM]	THP1 (endogenous RXFP1) cAMP EC50 (human RXFP1 [2]) [nM]	Transient HEK293 hRXFP1 cAMP EC50 (human RXFP1 [2]) [nM]	Transient HEK293 rRXFP1 cAMP EC50 (rat RXFP1 [3]) [nM]	EC50 for cAMP generation, recombinant human RXFP1 assay (average) (human RXFP1 [4]) [nM]	EC50 for cAMP generation, recombinant rat RXFP1 assay (average) (rat RXFP1 [5]) [nM]	Potency (cAMP, transient hRXFP1 in HEK293) (human RXFP1 [6]) [nM]
B1	8	63	38.2	31.2			
B2	0.2	2	0.19	1.15	0.2	1	
B3	10.1	200	25	20.3			
B4	8.8	100	21.5	29.1			
B5	3.9	30	10.2	12.4			
B6							8.3
B7	6.8	26	10.9	13.5			
B8							32
B9	4	30	7.46	24.5			
B10	11.1	90	19.1	21.3			
B11	2.8	11	6.17	6.74			
B12	3.5	80	5.94	6.74			
B13							23.2
B14	4.2	49	10	15.1			
B15							16.4
B16							42.4
B17							11.2
B18							24.6
